This note sets out measurements from PMC5663958, “DNA Ligase C and Prim-PolC participate in base excision repair in mycobacteria” (Nature Communications, 2017).

For experiment [1], the target named is T1, tag-free LigC1 (6xHis-LigC subjected to thrombin digestion) (M. smegmatis, UniProt A0R5T2 1-348).
T1 construct: ATP-dependent DNA ligase C1 of Mycobacterium smegmatis, locus msmeg_6302; same construct as m2 with the tag cut off by thrombin; The methods say 'LigC', the results 'LigC1'; source: E. coli Origami B pLysS, purified; His-tag removed by a standard thrombin digestion; not shown: 6xHis, N-terminal, cleaved
T1 sequence (looked up): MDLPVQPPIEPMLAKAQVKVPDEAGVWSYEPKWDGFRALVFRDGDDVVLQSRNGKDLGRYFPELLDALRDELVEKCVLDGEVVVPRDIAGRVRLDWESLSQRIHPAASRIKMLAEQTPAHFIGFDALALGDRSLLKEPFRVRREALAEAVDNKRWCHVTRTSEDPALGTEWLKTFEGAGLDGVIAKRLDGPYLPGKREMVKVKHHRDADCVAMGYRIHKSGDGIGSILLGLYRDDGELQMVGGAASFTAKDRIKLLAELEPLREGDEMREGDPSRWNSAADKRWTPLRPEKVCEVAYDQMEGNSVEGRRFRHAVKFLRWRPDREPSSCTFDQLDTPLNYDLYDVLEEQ
The experiment is described as follows: pull-down; FPG-6xHis or 6xHis-MPG bound to Ni-NTA resin in 50 mM Tris pH 8.0, 150 mM NaCl, 1 h at 4 °C; tag-free LigC or BSA added for 2 h; equimolar proteins; eluted with imidazole; SDS-PAGE and Coomassie staining. Particulars: both partners purified.

Experiment [2] concerns the target T2, DNA ligase C1 (LigC1, msmeg_6302), recombinant, His-tagged construct (M. smegmatis, UniProt A0R5T2 1-348).
T2 construct: ATP-dependent DNA ligase C1 of Mycobacterium smegmatis, locus msmeg_6302; Cloned in pET28; also called 6xHis-LigC; source: E. coli Origami B pLysS, purified (Ni Sepharose, ion exchange, gel filtration)
T2 sequence (looked up): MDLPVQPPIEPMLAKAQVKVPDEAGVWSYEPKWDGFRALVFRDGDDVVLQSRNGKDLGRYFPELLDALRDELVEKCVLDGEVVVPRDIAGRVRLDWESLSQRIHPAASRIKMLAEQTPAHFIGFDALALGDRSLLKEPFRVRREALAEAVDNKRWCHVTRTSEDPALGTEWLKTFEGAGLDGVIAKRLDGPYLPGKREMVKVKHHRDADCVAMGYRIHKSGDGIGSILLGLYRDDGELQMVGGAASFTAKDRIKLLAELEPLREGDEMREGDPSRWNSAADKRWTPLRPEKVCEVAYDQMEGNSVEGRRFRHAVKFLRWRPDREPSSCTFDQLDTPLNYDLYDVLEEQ
In words: far-Western, overlay or dot blot; recombinant proteins slot-blotted on a membrane (3 μg of the possible interactors, 50 ng of the probed protein), blocked in TBS, 0.05% Tween 20, 5% milk; incubated with 5 μg ml^−1 Prim-PolC or LigC1; detected with Prim-PolC- or LigC1-specific antibodies. The settings on record: both partners purified.

B1: FPG (MutM) bifunctional glycosylase, recombinant (enzyme, M. smegmatis, UniProt A0QV21 1-285, looked up)
chain: MPELPEVEVVRRGLAEHVTGKTITGVRVHHPRAVRRHEAGPADLTARLLDVRITGTGRRGKYLWLTLDDSAALVVHLGMSGQMLLGPIRDTRHLRIAAVLDDGTALSFVDQRTFGGWQLTEMVTVDGTDVPEPVAHIARDPLDPLFDRDRVVTVLRGKHSEIKRQLLDQTVVSGIGNIYADEALWRTKINGARIAAALPRRRLAELLDAAAEVMTDALGQGGTSFDSLYVNVNGESGYFDRSLDAYGREGEPCRRCGAIMRREKFMNRSSFYCPRCQPRPRVPRV
notes: Bifunctional DNA glycosylase FPG (MutM) of Mycobacterium smegmatis; Cloned in pET28; also called FPG-6xHis; source: E. coli Origami B pLysS, purified (Ni Sepharose, ion exchange, gel filtration); not shown: 6xHis, C-terminal, kept
Regarding B1, the binding result in experiment [1] and in experiment [2] was “binds” in each case.
